# B1: 人源化抗体HB12 (humanized anti-CD20 antibody HB12) (antibody, part only; not given: IgG1 and kappa constant regions, human IgG1, V domains shown, part only)
# VH: QVQLVQSGSELKKPGASVKVSCKASSYMHAVGMNWVKQAPGQGFEWMGWIYADSGTGGVTYVKGIIPTYAQGFTGRFVFSLDTSVSTAYLQISSLKAEDTATYYCDYYDGLYGMDVYGAGSFWGQGTTVTVSS
# Assays:
# [1] = target: T1, 人CD20蛋白 (human CD20) (human) (UniProt P11836); assay: indirect ELISA, recombinant human CD20 coated, rabbit anti-human IgG Fc-HRP
# T1 sequence (looked up): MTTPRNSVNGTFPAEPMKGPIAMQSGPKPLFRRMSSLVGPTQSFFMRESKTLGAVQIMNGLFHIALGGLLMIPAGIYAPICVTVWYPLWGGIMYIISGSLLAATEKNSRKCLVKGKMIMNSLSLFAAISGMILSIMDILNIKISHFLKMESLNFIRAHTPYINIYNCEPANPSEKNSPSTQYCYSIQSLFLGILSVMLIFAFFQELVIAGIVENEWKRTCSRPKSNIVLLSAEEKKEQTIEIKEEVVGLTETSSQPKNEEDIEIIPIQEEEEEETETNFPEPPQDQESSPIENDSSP
# [2] = target: T1, 人CD20蛋白 (human CD20) (human); assay: SPR (Biacore), antibody captured on anti-human capture CM5 chip, antigen as analyte from 10 nM, 1:1 kinetic model
binder,measurement,setting,value
B1,EC50,[1],0.0256 µg/mL
same,Kd,[2],0.0218 nM

# From patent CN111100204A
